Results as given in patent publication US10947523B2, “Biotechnological production of L-tryptophan” (Technische Universitaet Hamburg, priority 2017, dated 2021).
Numbering of substitutions follows the chain as printed. Names may count otherwise.

Experiments:
AgTrpC = AgTrpC (Aspergillus niger, UniProt P05328); assay: Effect of anthranilate on IGPs activity of TrpC; format: biochemical; settings: FIG. 7
[1] = target: T1, ScIGPs (ScTrpC without anthranilate synthase II domain) (Saccharomyces cerevisiae, UniProt P00937); assay: Effect of anthranilate on IGPs activity; format: biochemical; settings: anthranilate synthase II domain removed, FIG. 8
T1 construct: ScIGPs=ScTrpC without anthranilate synthase II domain
T1 sequence (P00937 215-484 limits assumed): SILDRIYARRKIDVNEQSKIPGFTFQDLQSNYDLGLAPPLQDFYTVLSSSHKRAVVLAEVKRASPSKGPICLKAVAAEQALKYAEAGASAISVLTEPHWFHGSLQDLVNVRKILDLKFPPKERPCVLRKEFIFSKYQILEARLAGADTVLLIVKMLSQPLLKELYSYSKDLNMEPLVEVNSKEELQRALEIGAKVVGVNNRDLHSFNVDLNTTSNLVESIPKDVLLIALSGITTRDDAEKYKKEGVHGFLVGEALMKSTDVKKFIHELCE
Description: FIG. 8. Effects of anthranilate on the activities of ScTrpC and ScIGPs (ScIGPs=ScTrpC without anthranilate synthase II domain).

6His-eIGPs = target: T2, 6His-eIGPs (Escherichia coli, UniProt P00909); assay: IGPs enzyme assay, inhibition by anthranilate; format: biochemical; settings: isolated IGPs domain, N-terminal His-tag
T2 construct: made in house; host or cells: E. coli Top10
Method: (§3) The activity of IGPs from E. coli was measured by monitoring the formation of IGP via absorbance at 278 nm [23] with a molar extinction coefficient value of 5500 M^−1 cm^−1 [24]. Assays were performed in 50 mM HEPPS pH 7.5, 4 mM EDTA at 30° C. with 20-25 μg/mL of purified enzymes in cuvettes. To investigate the effect of anthranilate on the activity of IGPs, the activities were measured in the presence of different concentrations of anthranilate. Unless stated otherwise, the reactions were started by adding 180 μM of the substrate CdRP. […] The concentration of the synthesized CdRP in the stock solution was determined by measuring the concentrations of the product IGP with completely converted reactions.

eIGPs-6His = target: T3, eIGPs-6His (Escherichia coli, UniProt P00909); assay: IGPs enzyme assay, inhibition by anthranilate; format: biochemical
T3 construct: made in house; host or cells: E. coli BL21
Method: (§1) The activity of IGPs from E. coli was measured by monitoring the formation of IGP via absorbance at 278 nm with a molar extinction coefficient value of 5500 M^−1 cm^−1 [24]. Assays were performed in 50 mM HEPPS pH 7.5, 4 mM EDTA at 30° C. with 20-25 μg/mL of purified enzymes in cuvettes. To investigate the effect of anthranilate on the activity of IGPs, the activities were measured in the presence of different concentrations of anthranilate. Unless stated otherwise, the reactions were started by adding 180 μM of the substrate CdRP. The synthesis of CdRP was performed by following the improved method reported by Kirschner et al.. The concentration of the synthesized CdRP in the stock solution was determined by measuring the concentrations of the product IGP with completely converted reactions.
To elucidate the effect of anthranilate on the enzyme activity of eIGPs, the catalytic activity of the isolated eIGPs (eIGPs-6His) was examined in the presence of different concentrations of anthranilate. […] The inhibition constant (IC50, 50% inhibitory concentration) of eIGPs-6His was measured to be about 0.70 mM.

6His-TrpC = target: T4, 6His-TrpC (Escherichia coli, UniProt P00909); assay: IGPs enzyme assay, inhibition by anthranilate; format: biochemical
T4 construct: inserting the PCR products amplified from E. coli S028 with primers EcoRI-6H-trpC and trpC-XbaI; made in house; host or cells: E. coli Top10
Method: as §3
In order to figure out whether the PRAi domain has an influence on the inhibition resistance of eIGPs, the effect of anthranilate on the activity of IGPs in the form of eIGPs-PRAi (6His-TrpC) was tested.

ScTrpC = target: T5, ScTrpC (Saccharomyces cerevisiae, UniProt P00937); assay: Effect of anthranilate on IGPs activity of TrpC; format: biochemical; settings: FIG. 7
T5 sequence (P00937 1-484): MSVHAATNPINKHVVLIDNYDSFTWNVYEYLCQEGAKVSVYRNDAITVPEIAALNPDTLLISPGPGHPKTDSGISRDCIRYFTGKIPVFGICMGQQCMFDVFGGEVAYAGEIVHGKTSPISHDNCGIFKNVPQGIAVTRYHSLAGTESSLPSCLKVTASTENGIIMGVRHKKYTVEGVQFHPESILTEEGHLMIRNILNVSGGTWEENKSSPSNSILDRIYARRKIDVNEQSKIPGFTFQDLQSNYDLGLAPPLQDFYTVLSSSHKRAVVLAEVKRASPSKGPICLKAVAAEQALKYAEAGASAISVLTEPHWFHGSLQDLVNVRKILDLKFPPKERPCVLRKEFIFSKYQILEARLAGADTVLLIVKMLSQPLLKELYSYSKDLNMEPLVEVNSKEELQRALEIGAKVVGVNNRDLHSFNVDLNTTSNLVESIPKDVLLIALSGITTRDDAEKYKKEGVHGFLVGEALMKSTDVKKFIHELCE

eIGPs mutant S60G = target: T6, eIGPs mutant S60G (Escherichia coli, UniProt P00909, S61G); assay: IGPs enzyme assay, inhibition by anthranilate; format: biochemical; settings: read-out: activity of mutant S60G inhibited
T6 construct: made in house; host or cells: E. coli BL21
Method: as §1
(§2) […]. Therefore, the effect of anthranilate on the activity of this mutants was not investigated. […] […].

eIGPs mutant S60A = target: T7, eIGPs mutant S60A (Escherichia coli, UniProt P00909, S61A); assay: IGPs enzyme assay, inhibition by anthranilate; format: biochemical
T7 construct: made in house; host or cells: E. coli BL21
Method: as §1, §2

[2] = Specific activities and kinetic constants of TrpC WT and TrpC QVFQ; format: biochemical, Escherichia coli
Method: as §1

[3] = Michaelis constants of 6His-TrpC without and with anthranilate; format: biochemical, Escherichia coli
Method: as §1
To identify the mechanism of the inhibition of eIGPs by anthranilate, the effect of the inhibitor on the Michaelis constants of eIGPs was investigated with 6His-TrpC. Various concentration of CdRP (from 2.6 to 260 μM) were used when the reactions carried out in the absence of anthranilate and in the presence of 0.5 mM anthranilate, respectively. […] It is somewhat consistent with the fact that anthranilate has a distinguished binding site from the catalytic site based on the crystal structure analysis.

[4] = SDS-PAGE analysis, data not shown
[5] = Enzyme assay of wild-type and mutant eIGPs (specific activity); format: biochemical, Escherichia coli; settings: for anthranilate resistance / sensitivity compared with wild-type eIGPs (in words): FIG. 3; for activity relative to the wild-type enzyme: 18 μM CdRP, absence of anthranilate; for specific activity compared with wild type in the presence of anthranilate: more than 0.1 mM anthranilate, 180 μM CdRP
Method: as §1, §2

[6] = two-domain form, reference [31]; cited from earlier work

T7 sequence (P00909 2-260 S61A): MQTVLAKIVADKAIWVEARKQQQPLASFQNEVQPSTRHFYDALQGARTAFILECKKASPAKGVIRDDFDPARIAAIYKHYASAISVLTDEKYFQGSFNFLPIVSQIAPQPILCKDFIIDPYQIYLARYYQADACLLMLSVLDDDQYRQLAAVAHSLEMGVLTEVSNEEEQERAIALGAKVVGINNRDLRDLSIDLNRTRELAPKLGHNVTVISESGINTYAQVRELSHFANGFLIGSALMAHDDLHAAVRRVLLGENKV
T6 sequence (P00909 2-260 S61G): as the sequence (P00909 2-260 S61A) above, with A60G counted along it
Sequence of AgTrpC (P05328 other isoform, or with tags, fused parts or gaps with the stated changes): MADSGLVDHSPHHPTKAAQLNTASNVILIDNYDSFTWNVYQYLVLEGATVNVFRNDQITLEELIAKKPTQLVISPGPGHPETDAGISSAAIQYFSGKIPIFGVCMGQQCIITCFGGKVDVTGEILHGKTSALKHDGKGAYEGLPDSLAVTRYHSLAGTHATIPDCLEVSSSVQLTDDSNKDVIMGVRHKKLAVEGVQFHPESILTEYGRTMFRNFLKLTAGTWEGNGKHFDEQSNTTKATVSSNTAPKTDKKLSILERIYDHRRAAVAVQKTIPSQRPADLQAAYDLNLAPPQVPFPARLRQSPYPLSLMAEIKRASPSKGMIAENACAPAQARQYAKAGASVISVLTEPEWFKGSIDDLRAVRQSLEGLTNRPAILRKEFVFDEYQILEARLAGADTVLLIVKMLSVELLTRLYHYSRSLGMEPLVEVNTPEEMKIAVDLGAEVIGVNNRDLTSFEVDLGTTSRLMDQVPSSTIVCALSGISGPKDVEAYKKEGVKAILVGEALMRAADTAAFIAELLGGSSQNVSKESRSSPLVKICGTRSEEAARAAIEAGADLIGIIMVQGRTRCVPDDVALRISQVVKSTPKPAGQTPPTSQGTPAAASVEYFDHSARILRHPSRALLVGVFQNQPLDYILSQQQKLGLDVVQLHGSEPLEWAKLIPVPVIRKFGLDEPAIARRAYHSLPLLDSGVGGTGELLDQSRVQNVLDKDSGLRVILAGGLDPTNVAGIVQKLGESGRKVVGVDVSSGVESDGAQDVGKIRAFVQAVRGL

Nc1ccccc1C(=O)O [anthranilate, 2-Aminobenzoic acid]
regulation of AgTrpC activity by anthranilate (AgTrpC): activated | regulation of ScIGPs activity by anthranilate [1]: no activation was observed | IC50 (6His-eIGPs): ~400 µM | IC50 (eIGPs-6His; 180 μM CdRP, 30° C., pH 7.5, read-out: inhibition constant (IC50, 50% inhibitory concentration) of eIGPs-6His): ~700 µM | inhibition at 500 µM (eIGPs-6His; 0.5 mM anthranilate, read-out: activity of eIGPs inhibited): 46% | mechanism of inhibition (6His-TrpC; Lineweaver-Burk, CdRP 2.6 to 260 μM, 0 vs 0.5 mM anthranilate): noncompetitive inhibitor | IC50 (6His-TrpC; eIGPs-PRAi two-domain form): ~1.3 mM | regulation of ScTrpC activity by anthranilate (ScTrpC): activated | inhibition at 2000 µM (eIGPs mutant S60G): 20% | IC50 (eIGPs mutant S60A): ~2 mM | inhibition at 2000 µM (eIGPs mutant S60A; read-out: activity of mutant S60A inhibited): 46%

B1: QVFQ: E. coli TrpC variant S58Q, P59V, S60F, K61Q, SEQ ID NO: 30 (protein)
chain: MQTVLAKIVADKAIWVEARKQQQPLASFQNEVQPSTRHFYDALQGARTAFILECKKAQVFQGVIRDDFDPARIAAIYKHYASAISVLTDEKYFQGSFNFLPIVSQIAPQPILCKDFIIDPYQIYLARYYQADACLLMLSVLDDDQYRQLAAVAHSLEMGVLTEVSNEEEQERAIALGAKVVGINNRDLRDLSIDLNRTRELAPKLGHNVTVISESGINTYAQVRELSHFANGFLIGSALMAHDDLHAAVRRVLLGENKVCGLTRGQDAKAAYDAGAIYGGLIFVATSPRCVNVEQAQEVMAAAPLQYVGVFRNHDIADVVDKAKVLSLAAVQLHGNEEQLYIDTLREALPAHVAIWKALSVGETLPAREFQHVDKYVLDNGQGGSGQRFDWSLLNGQSLGNVLLAGGLGADNCVEAAQTGCAGLDFNSAVESQPGIKDARLLASVFQTLRAY
modifications: EcTrpC S58Q P59V S60F K61Q
Specific activities ([2]; Anthranilate 0 mM): 1.886 ± 0.067 µmol/min/mg | Specific activities ([2]; Anthranilate 0.5 mM): 1.124 ± 0.074 µmol/min/mg | Specific activities ([2]; Anthranilate 1 mM): 1.152 ± 0.089 µmol/min/mg | Specific activities ([2]; Anthranilate 2 mM): 0.906 ± 0.022 µmol/min/mg | Specific activities ([2]; Anthranilate 3 mM): 0.866 ± 0.016 µmol/min/mg | Km ([2]; apparent, substrate CdRP): 6.14 ± 0.04 µM | kcat ([2]; apparent, substrate CdRP): 0.027 ± 0.001 s⁻¹ | inhibition by anthranilate compared to wildtype TrpC (in words) ([2]; increasing anthranilate concentrations, FIG. 12): significantly less inhibited by anthranilate

B2: 6His-TrpC: E. coli TrpC, two-domain form, 6His-tag at the N-terminus (protein, UniProt P00909 1-453, looked up)
Tryptophan biosynthesis …: MMQTVLAKIVADKAIWVEARKQQQPLASFQNEVQPSTRHFYDALQGARTAFILECKKASPSKGVIRDDFDPARIAAIYKHYASAISVLTDEKYFQGSFNFLPIVSQIAPQPILCKDFIIDPYQIYLARYYQADACLLMLSVLDDDQYRQLAAVAHSLEMGVLTEVSNEEEQERAIALGAKVVGINNRDLRDLSIDLNRTRELAPKLGHNVTVISESGINTYAQVRELSHFANGFLIGSALMAHDDLHAAVRRVLLGENKVCGLTRGQDAKAAYDAGAIYGGLIFVATSPRCVNVEQAQEVMAAAPLQYVGVFRNHDIADVVDKAKVLSLAAVQLHGNEEQLYIDTLREALPAHVAIWKALSVGETLPAREFQHVDKYVLDNGQGGSGQRFDWSLLNGQSLGNVLLAGGLGADNCVEAAQTGCAGLDFNSAVESQPGIKDARLLASVFQTLRAY
modifications: N-terminal His6 tag
notes: E. coli TrpC, two-domain form, 6His-tag at the N-terminus
Km ([3]; 0.5 mM anthranilate): 1530 nM | Vmax ([3]; 0.5 mM anthranilate): 2.63 µmol/min/mg | Km ([3]; no anthranilate): 1570 nM | Vmax ([3]; no anthranilate): 3.64 µmol/min/mg

B3: I8V (protein)
chain: B1 chain with I8V, Q58S, V59P, F60S, Q61K
modifications: EcTrpC I8V
solubility of the expressed protein (in words) [4]: poorer solubility than the wild-type eIGPs | Specific activity in the absence of anthranilate ([5]; CdRP 180 μM): 0.90 ± 0.03 µmol/min/mg | anthranilate resistance / sensitivity compared with wild-type eIGPs (in words) [5]: slightly increased

B4: L188F (protein)
chain: B1 chain with Q58S, V59P, F60S, Q61K, L188F
modifications: EcTrpC L188F
Specific activity in the absence of anthranilate ([5]; CdRP 180 μM): 1.04 ± 0.02 µmol/min/mg | anthranilate resistance / sensitivity compared with wild-type eIGPs (in words) [5]: slightly increased

B5: S60A: E. coli IGPs mutant S60A, SEQ ID NO: 3 (protein)
chain: B1 chain with Q58S, V59P, F60A, Q61K
modifications: EcTrpC S60A
efficiency (Kcat/Km) relative to the wild-type enzyme [6]: about 30% | activity relative to the wild-type enzyme [5]: 74% | Specific activity in the absence of anthranilate ([5]; CdRP 18 μM): 1.60 ± 0.03 µmol/min/mg | Specific activity in the absence of anthranilate ([5]; CdRP 60 μM): 2.05 ± 0.06 µmol/min/mg | Specific activity in the absence of anthranilate ([5]; CdRP 180 μM): 2.13 ± 0.01 µmol/min/mg | anthranilate resistance / sensitivity compared with wild-type eIGPs (in words) [5]: significantly improved | specific activity compared with wild type in the presence of anthranilate [5]: higher than that of the wild type

B6: S60G (protein)
chain: B1 chain with Q58S, V59P, F60G, Q61K
modifications: EcTrpC S60G
activity relative to the wild-type enzyme [5]: 52% | Specific activity in the absence of anthranilate ([5]; CdRP 18 μM): 1.13 ± 0.02 µmol/min/mg | Specific activity in the absence of anthranilate ([5]; CdRP 60 μM): 1.75 ± 0.03 µmol/min/mg | Specific activity in the absence of anthranilate ([5]; CdRP 180 μM): 1.92 ± 0.02 µmol/min/mg | anthranilate resistance / sensitivity compared with wild-type eIGPs (in words) [5]: significantly improved | Km ranking among WT, S60A, S60G ([5]; from rates of increased absorbance): largest Km | specific activity compared with wild type in the presence of anthranilate [5]: higher than that of the wild type
